Test results taken from US20180245067A1 (UNIVERSITY OF LEEDS, published 2018).
Residue numbers refer to the chain shown, from its start.

Legend:
[1] = biological target: T1, yeast Small Ubiquitin-like Modifier protein (SUMO) (yeast, UniProt Q12306 1-98 = SUMO); assay: phage ELISA on biotinylated ySUMO
T1 construct: also called ySUMO; yeast SUMO

papain [2] = biological target: T2, papain (UniProt P00784 134-345); assay: SPR (BIACORE 3000), cystatin on NTA chip via His tag, papain as analyte, 1:1 Langmuir fit
T2 sequence (looked up): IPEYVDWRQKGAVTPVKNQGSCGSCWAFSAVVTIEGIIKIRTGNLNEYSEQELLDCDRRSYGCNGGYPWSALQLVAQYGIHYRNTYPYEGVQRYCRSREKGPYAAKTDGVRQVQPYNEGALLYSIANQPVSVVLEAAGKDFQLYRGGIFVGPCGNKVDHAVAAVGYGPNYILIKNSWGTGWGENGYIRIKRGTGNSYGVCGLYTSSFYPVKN

papain [3] = biological target: T2, papain; assay: cell-based or functional assay
human SUMO1 = biological target: T3, human SUMO1 (human, UniProt P63165 1-97); assay: ELISA and Western blot with biotinylated Adhiron
T3 construct: also called hSUMO1

[4] = biological target: T1, yeast Small Ubiquitin-like Modifier …; assay: BioLayer Interferometry (BLitz), biotinylated Adhiron on streptavidin biosensor, global fit

T3 sequence (P63165 1-97 limits assumed): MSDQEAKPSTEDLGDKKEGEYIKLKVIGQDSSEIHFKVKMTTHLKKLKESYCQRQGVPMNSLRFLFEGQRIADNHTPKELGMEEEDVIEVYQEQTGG
T1 sequence (Q12306 1-98 limits assumed): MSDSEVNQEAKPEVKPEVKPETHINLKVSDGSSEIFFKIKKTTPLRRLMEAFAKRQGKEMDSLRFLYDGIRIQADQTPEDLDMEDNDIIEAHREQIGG

B1: Ad-ySUMO 12 (designed binder)
chain: NSLEIEELARFAVDEHNKKENALLEFVRVVKAKEQWYERSENWDTMYYLTLEAKDGGKKKLYEAKVWVKRDYGFTLVPNFKELQEFKPVGDA
notes: also called clone 12
B1: binds [1].

B2: Ad-ySUMO 4 (designed binder)
chain: NSLEIEELARFAVDEHNKKENALLEFVRVVKAKEQIDLTHSLNYTMYYLTLEAKDGGKKKLYEAKVWVKGLTNEIQKMNFKELQEFKPVGDA
notes: also called clone 4
B2: binds [1].

B3: Ad-ySUMO 5 (designed binder)
chain: B2 chain
notes: also called clone 5
B3: binds [1].

B4: Ad-ySUMO 19 (designed binder)
chain: NSLEIEELARFAVDEHNKKENALLEFVRVVKAKEQWSEADNDWHTMYYLTLEAKDGGKKKLYEAKVWVKLDLETWQHFNFKELQEFKPVGDA
notes: also called clone 19
B4: binds [1].

B5: CEWC (other, chicken)
chain: SEDRSRLLGAPVPVDENDEGLQRALQFAMAEYNRASNDKYSSRVVRVISAKRQLVSGIKYILQVEIGRTTCPKSSGDLQSCEFHDEPEMAKYTTCTFVVYSIPWLNQIKLLESKCQRGSHHHHHH
notes: also called chicken egg white cystatin
B5 was tested, and the Ka (papain [2]) was 2.6e+09 M⁻¹, the Kd (papain [2]) was 0.39 nM and the kon (papain [2]) was 1.3e+06 M⁻¹ s⁻¹.

B6: Ad-ySUMO 9 (designed binder)
chain: NSLEIEELARFAVDEHNKKENALLEFVRVVKAKEQIDLTDVWIDTMYYLTLEAKDGGKKKLYEAKVWVKGLMTQTNSMNFKELQEFKPVGDA
notes: also called clone 9
B6: binds [1].

B7: Ad-ySUMO 3 (designed binder)
chain: NSLEIEELARFAVDEHNKKENALLEFVRVVKAKEQINLMMVSPMTMYYLTLEAKDGGKKKLYEAKVWVKGIQQNPSHANFKELQEFKPVGDA
notes: also called clone 3
B7: binds [1].

B8: OSA-IΔD86 (other)
chain: MSSDGGPVLGGVEPVGNENDLHLVDLARFAVTEHNKKANSLLEFEKLVSVKQQVVAGTLYYFTIEVKEGDAKKLYEAKVWEKPWMFKELQEFKPVDASANARGSHHHHHH
notes: also called OSA1ΔD86; modified oryzacystatin lacking residue Asp86
With B8 the Ka (papain [2]) was 2.1e+08 M⁻¹ and the “IC50, papain inhibition assay with pGlu-Phe-Leu-p-nitroanilide” value (papain [3]) was 1.8e-07 M.

B9: Ad-ySUMO 2 (designed binder)
chain: NSLEIEELARFAVDEHNKKENALLEFVRVVKAKEQIDLTNSFASTMYYLTLEAKDGGKKKLYEAKVWVKDINQYWHSMNFKELQEFKPVGDA
notes: also called clone 2
B9: binds [1].

B10: Ad-ySUMO 23 (designed binder)
chain: NSLEIEELARFAVDEHNKKENALLEFVRVVKAKEQIDLTQPHDSTMYYLTLEAKDGGKKKLYEAKVWVKPHDELNWNMNFKELQEFKPVGDA
notes: also called clone 23
B10: binds [1].

B11: Ad-ySUMO 22 (designed binder)
chain: B10 chain with P41S, H42F, S44M, H71I, E73S, L74N, N75F, W76T, N77G, M78T
notes: also called clone 22
In the case of B11, the binding result (human SUMO1) is reported as “no binding” and the Kd [4] is reported as 9 nM.

B12: Ad-ySUMO 15 (designed binder)
chain: B10 chain with P70Y, H71E, D72E, E73D, L74E, N75Y, N77R
notes: also called clone 15; Yeast Sumo Adhiron 15
B12 was tested, and the binding result (human SUMO1) was “no binding” and the Kd [4] was 2.4 nM.

B13: Ad-ySUMO 7 (designed binder)
chain: NSLEIEELARFAVDEHNKKENALLEFVRVVKAKEQWVDMDYYWRTMYYLTLEAKDGGKKKLYEAKVWVKMDEIWAEYANFKELQEFKPVGDA
notes: also called clone 7
B13: binds [1].

B14: Ad-ySUMO 24 (designed binder)
chain: NSLEIEELARFAVDEHNKKENALLEFVRVVKAKEQWEDFQTHWETMYYLTLEAKDGGKKKLYEAKVWVKDVGQLLSGINFKELQEFKPVGDA
notes: also called clone 24
B14: binds [1].

B15: Ad-ySUMO 17 (designed binder)
chain: NSLEIEELARFAVDEHNKKENALLEFVRVVKAKEQWYLLDVMDDTMYYLTLEAKDGGKKKLYEAKVWVKHDRRYKQAENFKELQEFKPVGDA
notes: also called clone 17
B15: binds [1].

B16: Ad-ySUMO 1 (designed binder)
chain: NSLEIEELARFAVDEHNKKENALLEFVRVVKAKEQWDLTGNVDTTMYYLTLEAKDGGKKKLYEAKVWVKWDDWGERFWNFKELQEFKPVGDA
notes: also called clone 1
B16: binds [1].

B17: Ad-ySUMO 13 (designed binder)
chain: NSLEIEELARFAVDEHNKKENALLEFVRVVKAKEQWDLTTPINITMYYLTLEAKDGGKKKLYEAKVWVKYEDYQTPMYNFKELQEFKPVGDA
notes: also called clone 13
B17: binds [1].

B18: Ad-ySUMO 10 (designed binder)
chain: NSLEIEELARFAVDEHNKKENALLEFVRVVKAKEQIIIHENDADTMYYLTLEAKDGGKKKLYEAKVWVKGIMDGLNKYNFKELQEFKPVGDA
notes: also called clone 10
With B18 the binding result (human SUMO1) was “no binding” and the Kd [4] was 11.5 nM.

B19: Ad-ySUMO 20 (designed binder)
chain: NSLEIEELARFAVDEHNKKENALLEFVRVVKAKEQIDLTGQWLFTMYYLTLEAKDGGKKKLYEAKVWVKPLWQYDAQYNFKELQEFKPVGDA
notes: also called clone 20
For B19, the binding result (human SUMO1) was “no binding” and the Kd [4] was 14.2 nM.

B20: Ad-ySUMO 18 (designed binder)
chain: NSLEIEELARFAVDEHNKKENALLEFVRVVKAKEQWIDRGQYWDTMYYLTLEAKDGGKKKLYEAKVWVKIHNGYTIMDNFKELQEFKPVGDA
notes: also called clone 18
B20: binds [1].

B21: Ad-ySUMO 14 (designed binder)
chain: NSLEIEELARFAVDEHNKKENALLEFVRVVKAKEQWFDDEYDWITMYYLTLEAKDGGKKKLYEAKVWVKDYAATDLYWNFKELQEFKPVGDA
notes: also called clone 14
B21: binds [1].

B22: Ad-ySUMO 6 (designed binder)
chain: NSLEIEELARFAVDEHNKKENALLEFVRVVKAKEQIDLTEWQDRTMYYLTLEAKDGGKKKLYEAKVWVKPEPIHSHHSNFKELQEFKPVGDA
notes: also called clone 6
B22: binds [1].

B23: Ad-ySUMO 8 (designed binder)
chain: NSLEIEELARFAVDEHNKKENALLEFVRVVKAKEQIDLTQTEIVTMYYLTLEAKDGGKKKLYEAKVWVKEPGIIPIVHNFKELQEFKPVGDA
notes: also called clone 8
B23: binds [1].

B24: PHYTC57 (designed binder)
chain: MAALLGGVRAVPGNENSLEIEELARFAVDEHNKKENALLEFVRVVKAKEQVVAGTMYYLTLEAKDGGKKKLYEAKVWVKPWETFKELQEFKPVGDARGSHHHHHH
notes: also called consensus phytocystatin; consensus cystatin
In the case of B24, the Ka (papain [2]) is reported as 1.6e+11 M⁻¹, the Kd (papain [2]) is reported as 0.0063 nM and the kon (papain [2]) is reported as 350000 M⁻¹ s⁻¹. The “IC50, papain inhibition assay with pGlu-Phe-Leu-p-nitroanilide” value (papain [3]) was 4.6e-08 M.
